Laboratory results from patent US20040105862A1.

Key:
mouse TIMP-1 (mouse) [1] = molecular target: mouse TIMP-1 (mouse) (UniProt P12032); test: BIAcore SPR
mouse TIMP-1 (mouse) [2] = molecular target: mouse TIMP-1 (mouse) (UniProt P12032); test: BIAcore SPR, immobilised mouse TIMP-1

mouse TIMP-1 (mouse), sequence (P12032 25-205 limits assumed): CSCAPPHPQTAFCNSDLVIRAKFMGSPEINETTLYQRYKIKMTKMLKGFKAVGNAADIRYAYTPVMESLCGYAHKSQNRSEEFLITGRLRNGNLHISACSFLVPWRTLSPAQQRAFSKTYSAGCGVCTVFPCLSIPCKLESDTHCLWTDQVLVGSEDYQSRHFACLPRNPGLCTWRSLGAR

B1: MS-BW-17-1 Fab (Fab, V domains shown)
VH: QVQLVQSGAEVKKPGESLKISCKGSGYSFTSYWIGWVRQMPGKGLEWMGIIYPGDSDTRYSPSFQGQVTISADKSISTAYLQWSSLKASDTAMYYCARLTNYFDSIYYDHWGQGTLVTVSS
VL: DIALTQPASVSGSPGQSITISCTGTSSDVGGYNYVSWYQQHPGKAPKLMIYDVSNRPSGVSNRFSGSKSGNTASLTISGLQAEDEADYYCQAFDVAPNGKVFGGGTKLTVLG
- fold weaker than the affinity to rat TIMP-1 (mouse TIMP-1 (mouse) [1]): 225 fold
- Kd (mouse TIMP-1 (mouse) [2]): 180 nM
